From patent US20220169693A1, “Screening Assays, Modulators and Modulation of Intracellular Signalling Mediated by Immunoglobulin Superfamily Cell Adhesion Molecules” (Monash University, priority 2018, published 2022)

Legend:
[1] = target: T1, human ALCAM (ALCAM1-583, cytosolic tail ALCAM551-583) (Homo sapiens, UniProt Q13740); assay: Ang II-induced p65/PCNA expression in AT1R-CHO cells transfected with human ALCAM (full length or cytosolic tail); type: cell-based; details: Ang II 1 μM, co-transfection (FIG. 3G, 1E)
T1 construct: expressed in transfected cells; host or cells: AT1R-CHO (CHO stably transfected with human AT1R-Rluc8), transient transfection
T1 sequence (Q13740 551-583): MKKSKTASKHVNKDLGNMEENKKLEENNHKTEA
Method: (§1) Adult retinal pigment epithelial (ARPE) cells were cultured in Dulbecco's modified Eagle's medium (DMEM)/F12 endothelial cell growth supplement (ECGS) supplemented media. Chinese Hamster Ovary (CHO) cells were cultured using F12 media (10% FCS with 2 mM glutamine). Human microvascular endothelial cells (HMEC) were cultured in MCDB 131 medium (10% FCS with 10 mM glutamine, EGF and hydrocortisone).
(§2) 100 ng of AT1R-Rluc8 construct was transfected into CHO cells using Lipofectamine 2000 (Thermo). Stable transfectants were selected using G418. AT1R-CHO were then transiently transfected with the IgSF CAM and/or RAGE constructs using Lipofectamine 2000 (Invitrogen) and incubated for 16h.
(§3) Oligonucleotides were designed and ordered to generate the ALCAM, BCAM and MCAM intracellular (cytosolic) domains. These included a 5′ NheI site, Kozak sequence and initiating Methionine and then DNA sequences corresponding to ALCAM residues 552-583, BCAM residues 569-628 and MCAM residues 584-637 respectively (Note that as residue 551 of ALCAM is Methionine, the cytosolic tail of ALCAM effectively corresponded to residues 551-583). The pCIneo parental vector was digested with NheI and NotI restriction enzymes, and the DNA of the fragments of the ALCAM, BCAM and MCAM tails/cytosolic domains were ligated into the digested plasmid. After transformation and recovery, colonies were screened and individual clones sequenced. The sequence of the insert was confirmed by DNA sequencing (Micromon, Monash University). A full-length clone of Mouse ALCAM (BC027280) was purchased from Origene. The untagged clone was supplied in the vector pCMV6. Overlapping DNA sequences were ordered to generate the ALCAM559-580 fragment oligonucleotide. These included a 5′ NheI site, Kozak sequence and initiating Methionine and then DNA sequences corresponding to ALCAM residues 559-580. The pCIneo parental vector was digested with NheI and NotI restriction enzymes, and the ALCAM559-580 construct DNA was ligated into the digested plasmid. After transformation and recovery, colonies were screened and individual clones sequenced.
(§4) After 2 hours of exposure to Ang II (1 μM) cells were placed in Trizol, mRNA extracted and cDNA synthesized. Changes in the gene expression of the NFκB subunit, p65 (RelA) or NFκB-activated target genes (e.g ICAM-1) were estimated by quantitative real-time RT-PCR, performed using the TaqMan system based on real-time detection of accumulated fluorescence (ABI Prism 7700, Perkin-Elmer Inc, PE Biosystems, Foster City, Calif., USA). Gene expression was normalized to 18S mRNA and reported as fold change compared to the level of expression in untreated control mice/cells, which were given an arbitrary value of 1.

[2] = target: T2, full length murine ALCAM1-583 (Mus musculus, UniProt Q61490); assay: Ang II-induced p65/PCNA expression in AT1R-CHO cells transfected with full length murine ALCAM (qRT-PCR); type: cell-based; details: Ang II 1 μM 2 h, co-transfection of the construct, vs pCIneo (FIG. 3B, 5B)
T2 construct: host or cells: AT1R-CHO (CHO stably transfected with human AT1R-Rluc8), transient transfection; untagged clone in pCMV6
T2 sequence (Q61490 28-583): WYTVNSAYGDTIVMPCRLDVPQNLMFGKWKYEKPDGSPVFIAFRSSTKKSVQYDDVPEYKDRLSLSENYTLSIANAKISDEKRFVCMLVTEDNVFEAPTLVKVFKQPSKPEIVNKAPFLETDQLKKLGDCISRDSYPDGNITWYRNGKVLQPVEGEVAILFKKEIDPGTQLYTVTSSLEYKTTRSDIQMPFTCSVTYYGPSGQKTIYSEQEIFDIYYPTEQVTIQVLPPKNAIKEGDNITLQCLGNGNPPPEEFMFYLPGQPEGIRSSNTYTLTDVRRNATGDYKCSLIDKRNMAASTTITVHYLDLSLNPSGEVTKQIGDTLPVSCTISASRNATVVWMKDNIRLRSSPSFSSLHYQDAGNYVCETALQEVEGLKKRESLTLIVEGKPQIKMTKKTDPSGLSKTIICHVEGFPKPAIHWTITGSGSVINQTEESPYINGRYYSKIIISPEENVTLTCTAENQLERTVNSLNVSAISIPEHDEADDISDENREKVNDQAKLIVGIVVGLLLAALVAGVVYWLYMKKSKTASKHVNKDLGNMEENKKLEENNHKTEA
Method: as §1, §2
as §3, with “Overlapping DNA sequences were ordered to generate the ALCAM559-580 fragment oligonucleotide. These included a 5′ NheI site, Kozak sequence and initiating Methionine and then DNA sequences corresponding to ALCAM residues 559-580. The pCIneo parental vector was digested with NheI and NotI restriction enzymes, and the ALCAM559-580 construct DNA was ligated into the digested plasmid. After transformation and recovery, colonies were screened and individual clones sequenced.” left out
(§5) After 2 hours of exposure to Ang II (1 μM) cells were placed in Trizol, mRNA extracted and cDNA synthesized. Changes in the gene expression of the NFκB subunit, p65 (RelA) or NFκB-activated target genes (e.g ICAM-1) were estimated by quantitative real-time RT-PCR, performed using the TaqMan system based on real-time detection of accumulated fluorescence (ABI Prism 7700, Perkin-Elmer Inc, PE Biosystems, Foster City, Calif., USA). […]

AT1R-CHO cells = assay: p65 expression in AT1R-CHO cells expressing the truncated construct alone; type: cell-based, Chinese Hamster; details: for induction of p65 expression by Ang II when the construct alone is expressed: AT1R-CHO cells, Ang II 1 μM (FIG. 3A, 5A, 5B); for induction of p65 expression following exposure to S100A8/9 when the construct alone is expressed: S100A8/9 1 μM (FIG. 4A)
Method: as §1, §2, §3, §4

[3] = target: T2, full length murine ALCAM1-583; assay: S100A8/A9-induced PCNA expression in CHO cells transfected with full length murine ALCAM; type: cell-based; details: S100A8/A9 1 μM 2 h, co-transfection (FIG. 4A)
Method: as §1
Oligonucleotides were designed and ordered to generate the ALCAM, BCAM and MCAM intracellular (cytosolic) domains. These included a 5′ NheI site, Kozak sequence and initiating Methionine and then DNA sequences corresponding to ALCAM residues 552-583, BCAM residues 569-628 and MCAM residues 584-637 respectively (Note that as residue 551 of ALCAM is Methionine, the cytosolic tail of ALCAM effectively corresponded to residues 551-583). The pCIneo parental vector was digested with NheI and NotI restriction enzymes, and the DNA of the fragments of the ALCAM, BCAM and MCAM tails/cytosolic domains were ligated into the digested plasmid. […]
[…] Changes in the gene expression of the NFκB subunit, p65 (RelA) or NFκB-activated target genes (e.g ICAM-1) were estimated by quantitative real-time RT-PCR, performed using the TaqMan system based on real-time detection of accumulated fluorescence (ABI Prism 7700, Perkin-Elmer Inc, PE Biosystems, Foster City, Calif., USA). […]

[4] = target: T3, cytosolic tail of ALCAM, ALCAM551-583 (Homo sapiens, UniProt Q13740); assay: Ang II-induced ICAM-1 expression in ARPE cells transfected with cytosolic tail of ALCAM; type: cell-based; details: Ang II 1 μM
T3 construct: corresponds to residues 551-583 of ALCAM, with initial Methionine already present; expressed in transfected cells; host or cells: human ARPE (adult retinal pigment epithelial) cells; insert in pCIneo
T3 sequence (Q13740 551-583 limits assumed): T1 sequence (Q13740 551-583)
Method: as §1
(§6) Oligonucleotides were designed and ordered to generate the ALCAM, BCAM and MCAM intracellular (cytosolic) domains. These included a 5′ NheI site, Kozak sequence and initiating Methionine and then DNA sequences corresponding to ALCAM residues 552-583, BCAM residues 569-628 and MCAM residues 584-637 respectively (Note that as residue 551 of ALCAM is Methionine, the cytosolic tail of ALCAM effectively corresponded to residues 551-583). […]
as §5

[5] = target: T4, cytosolic tail of MCAM, MCAM584-637 (Homo sapiens, UniProt P43121); assay: Ang II-induced ICAM-1 expression in ARPE cells transfected with cytosolic tail of MCAM; type: cell-based; parameters: corresponds to residues 584-637 of MCAM plus an initiating Methionine; initiating Methionine (N); expressed in transfected cells; host or cells: human ARPE (adult retinal pigment epithelial) cells; insert in pCIneo; details: Ang II 1 μM, co-transfection (FIG. 2B)
T4 sequence (P43121 with tags, fused parts or gaps): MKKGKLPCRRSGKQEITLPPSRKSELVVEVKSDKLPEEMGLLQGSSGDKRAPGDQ
Method: as §1, §6, §5

[6] = target: T5, cytosolic tail of BCAM, BCAM569-628 (Homo sapiens, UniProt P50895); assay: Ang II-induced ICAM-1 expression in ARPE cells transfected with cytosolic tail of BCAM; type: cell-based; parameters: corresponds to residues 569-628 of BCAM plus an initiating Methionine; initiating Methionine (N); expressed in transfected cells; host or cells: human ARPE (adult retinal pigment epithelial) cells; insert in pCIneo; details: Ang II 1 μM, treatment with oligopeptide (FIG. 2C)
T5 sequence (P50895 with tags, fused parts or gaps): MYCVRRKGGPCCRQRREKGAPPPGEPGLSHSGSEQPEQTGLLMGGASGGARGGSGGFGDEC
Method: as §1, §6, §5

[7] = target: T5, cytosolic tail of BCAM, BCAM569-628; assay: Ang II-induced p65 expression in AT1R-CHO cells transfected with cytosolic tail of BCAM; type: cell-based; parameters: corresponds to residues 569-628 of BCAM plus an initiating Methionine; initiating Methionine (N); expressed in transfected cells; host or cells: AT1R-CHO (CHO stably transfected with human AT1R-Rluc8); insert in pCIneo; details: Ang II 1 μM, co-transfection (FIG. 3H)
Method: as §1, §2
(§7) Oligonucleotides were designed and ordered to generate the ALCAM, BCAM and MCAM intracellular (cytosolic) domains. […]
as §5

[8] = target: T4, cytosolic tail of MCAM, MCAM584-637; assay: Ang II-induced p65 expression in AT1R-CHO cells transfected with cytosolic tail of MCAM; type: cell-based; parameters: corresponds to residues 584-637 of MCAM plus an initiating Methionine; initiating Methionine (N); expressed in transfected cells; host or cells: AT1R-CHO (CHO stably transfected with human AT1R-Rluc8); insert in pCIneo; details: Ang II 1 μM, co-transfection (FIG. 3I)
Method: as §1, §2, §7, §5

[9] = target: T6, cytosolic tail of human CADM4, CADM4346-388 (Homo sapiens, UniProt Q8NFZ8); assay: Ang II-induced p65 expression in AT1R-CHO cells transfected with cytosolic tail of CADM4; type: cell-based; details: Ang II 1 μM, co-transfection (FIG. 3K)
T6 construct: initiating Methionine (N); expressed in transfected cells; host or cells: AT1R-CHO (CHO stably transfected with human AT1R-Rluc8), transient transfection
T6 sequence (Q8NFZ8 with tags, fused parts or gaps): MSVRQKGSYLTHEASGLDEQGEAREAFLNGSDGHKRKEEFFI
Method: as §1, §2, §4

[10] = target: T7, cytosolic tail of human EpCAM, EpCAM289-314 (Homo sapiens, UniProt P16422); assay: Ang II-induced p65 expression in AT1R-CHO cells transfected with cytosolic tail of EpCAM; type: cell-based; details: Ang II 1 μM, co-transfection (FIG. 3J)
T7 construct: corresponds to residues 289-314 of EpCAM plus an initiating Methionine; initiating Methionine (N); expressed in transfected cells; host or cells: AT1R-CHO (CHO stably transfected with human AT1R-Rluc8), transient transfection
T7 sequence (P16422 with tags, fused parts or gaps limits assumed): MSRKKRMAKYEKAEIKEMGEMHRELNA
Method: as §1, §2, §4

Sequence	induction of p65-NFκB expression by Ang II via transactivation of the cytosolic tail of human ALCAM, ALCAM551-583 [1]	induction of p65-NFκB expression by Ang II via AT1R-dependent transactivation of full length murine ALCAM1-583 [2]	induction of p65 expression by Ang II when the construct alone is expressed (AT1R-CHO cells)	induction of p65 expression following exposure to S100A8/9 when the construct alone is expressed (AT1R-CHO cells)	ligand-dependent signalling (PCNA expression) via murine ALCAM activated by S100A8/A9 [3]	NFKB-dependent induction of ICAM-1 gene expression by Ang II via ALCAM551-583 ([4]; co-transfection (FIG. 2A))	NFKB-dependent induction of ICAM-1 gene expression by Ang II via MCAM584-637 [5]	NFKB-dependent induction of ICAM-1 gene expression by Ang II via BCAM569-628 [6]	proinflammatory signalling (ICAM-1) induced by Ang II mediated by the cytosolic tail of ALCAM ([4]; treatment with oligopeptide (FIG. 2C))	induction of p65-NFκB expression by Ang II via transactivation of BCAM569-628 [7]	induction of p65-NFκB expression by Ang II via transactivation of MCAM584-637 [8]	induction of p65-NFκB expression by Ang II via transactivation of CADM4346-388 [9]	induction of p65-NFκB expression by Ang II via transactivation of EpCAM289-314 [10]
MGEERKAPENQEEEEERAELNQ [RAGE370-390]	inhibited	inhibited	no induction of p65 expression is observed	no induction of p65 expression is observed	inhibited	inhibited	inhibited	–	–	–	–	–	–
MLWQRRQRRGEERKAPENQEEEEERAELNQAEEPEAGESSTGGP (Synthetic peptide - Truncated amino acid sequence of human RAGE protein corresponding to residues 362 to 404 of human RAGE protein with a mutation of Serine 391 to Alanine plus an initiating methionine residue) [S391A-RAGE362-404, entire cytosolic tail of RAGE with serine391 mutated to alanine]	–	–	–	–	–	–	–	inhibited	inhibited	–	–	–	–
QEEEEERAELNQ (Synthetic peptide - Truncated amino acid sequence corresponding to residues 379 to 390 of human RAGE protein) [RAGE379-390]	prevents induction	–	no induction of p65 expression is observed	no induction of p65 expression is observed	–	–	–	–	–	prevents induction	prevents induction	prevents induction	prevents induction
